In the supplement of paper PMC10201428:
± gives the standard deviation of the averaged measurements.

What was measured:
[1] = system: VchCAST RNA-guided transposition machinery (E. coli BL21(DE3) host, lacZ target); assay: relative integration efficiency (T-RL orientation) vs wild-type transposon end (log2 (normalized fold change)); transposon end mutated: right end (5 bp flank + 75 bp right end); higher = more efficient transposition
In short: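 Each barcoded pool, 1549 left-end or 1849 right-end transposon variants in a pUC57 mini-transposon donor, went into E. coli BL21(DE3) with a T7-driven effector plasmid (CRISPR array, tniQ-cas8-cas7-cas6, tnsA-tnsB-tnsC). Plates contained 0.1 mM IPTG and were held at 37°C for 18 h. Input plasmids and genomic integration junctions were PCR-amplified and read by Illumina sequencing, with two biological output replicates and four reference barcodes. Relative integration efficiency is the fold change of output over input barcode abundance, normalised to the reference barcodes and log-transformed.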

[2] = system: VchCAST RNA-guided transposition machinery (E. coli BL21(DE3) host, lacZ target); assay: relative integration efficiency (T-LR orientation) vs wild-type transposon end (log2 (normalized fold change)); transposon end mutated: right end (5 bp flank + 75 bp right end); higher = more efficient transposition
Protocol: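 Pooled, barcoded VchCAST (Tn6677) mini-transposon donor libraries; each variable transposon-end sequence sits in a fixed pDonor mini-transposon context (10-bp barcode and cargo not included). Left- or right-end libraries were co-transformed with pEffector (TniQ-Cascade, TnsABC, lacZ crRNA, T7, 0.1 mM IPTG) into E. coli BL21(DE3) and grown 18 h at 37 C. T-LR and T-RL junction amplicons were sequenced; output/input barcode fold change was normalised to the mean of four wild-type barcodes and log2-transformed. Two biological replicates; zero-count/undetected variants carry floor values (-10 / -15), censored here. Barcode uncoupling by PCR recombination adds noise.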

Sequence	relative integration efficiency (log2) [1]	relative integration efficiency (log2) [2]
ACATTTCTTCATACAACCATAAAATGATAATTACACCCATAAATGGATCATTATCACACCCAATTTAACTATAACGCTCTGATCATAGTCAGACCAACATTGCTACGACCCGTATTCGCACCGACAC	-4.65 ± 0.36	-3.69 ± 0.99
ACATTTCTTCATACAACCATAAAATGATAATTACACCCATAAATTCATAATTATCACACCCAATTTAACTATAACGCTCTGATCATAGTCAGACCAACATTGCTACGACCCGTATTCGCACCGACAC	-5.24 ± 0.61	-3.54 ± 2.7
ACATTTCTTCATACAACCATAAAATGATAATTACACCCATAAATTCATCATTATCACACCCAATTTAACTATAACGCTCTGATCATAGTCAGACCAACATTGCTACGACCCGTATTCGCACCGACAC	-4.8 ± 0.27	-3.38 ± 0.49
ACATTTCTTCATACAACCATAAAATGATAATTACACCCATAAATTGATAATTATCACACCCAATTTAACTATAACGCTCTGATCATAGTCAGACCAACATTGCTACGACCCGTATTCGCACCGACAC	-3.68 ± 0.52	-2.1 ± 0.57
ACATTTCTTCATACAACCATAAAATGATAATTACACCCATAAATTGATCATTATCACACCCAATTTAACTATAACGCTCTGATCATAGTCAGACCAACATTGCTACGACCCGTATTCGCACCGACAC	-4.44 ± 0.65	-3.3 ± 0.16
ACATTTCTTGATACAACCATAAAATGATAATTACACCCATAAATGGATAATTATCACACCCAATTTAACTATAACGCTCTGATCATAGTCAGACCAACATTGCTACGACCCGTATTCGCACCGACAC	-2 ± 0.23	0.0926 ± 0.35
ACATTTCTTGATACAACCATAAAATGATAATTACACCCATAAATGGATCATTATCACACCCAATTTAACTATAACGCTCTGATCATAGTCAGACCAACATTGCTACGACCCGTATTCGCACCGACAC	-2.34 ± 0.22	0.00332 ± 0.054
ACATTTCTTGATACAACCATAAAATGATAATTACACCCATAAATTCATAATTATCACACCCAATTTAACTATAACGCTCTGATCATAGTCAGACCAACATTGCTACGACCCGTATTCGCACCGACAC	-2.79 ± 0.24	-0.103 ± 0.73
ACATTTCTTGATACAACCATAAAATGATAATTACACCCATAAATTCATCATTATCACACCCAATTTAACTATAACGCTCTGATCATAGTCAGACCAACATTGCTACGACCCGTATTCGCACCGACAC	-2.84 ± 0.46	0.193 ± 0.077
ACATTTCTTGATACAACCATAAAATGATAATTACACCCATAAATTGATCATTATCACACCCAATTTAACTATAACGCTCTGATCATAGTCAGACCAACATTGCTACGACCCGTATTCGCACCGACAC	-1.92 ± 0.52	1.34 ± 0.11
ACATTTGAAGATACAACCATAAAATGATAATTACACCCATAAATTGATAATTATCACACCCATAAATTGATATTGCCTCTGATCATAGTCAGACCAACATTGCTACGACCCGTATTCGCACCGACAC	-0.132 ± 0.019	-0.786 ± 0.12
ACATTTGATGATACAACCATATAATGATAATAACACCCATAAAATGATAATTATCACACCCAATTTAACTATAACGCTCTGATCATAGTCAGACCAACATTGCTACGACCCGTATTCGCACCGACAC	-1.61 ± 0.26	1.073 ± 0.0088
ACATTTGATGATACTACCATTTAATGATAATAACACCCATAAAATGATAATTATCACACCCAATTTAACTATAACGCTCTGATCATAGTCAGACCAACATTGCTACGACCCGTATTCGCACCGACAC	-2.14 ± 0.37	-0.158 ± 0.16
ACATTTGATGATAGAACCATTTAATGATAATAACACCCATAAAATGATAATTATCACACCCAATTTAACTATAACGCTCTGATCATAGTCAGACCAACATTGCTACGACCCGTATTCGCACCGACAC	-2.75 ± 0.52	-0.836 ± 0.44
ACATTTGCTGATACAACCATATAATGATAATAACACCCATAAAATGATAATTATCACACCCAATTTAACTATAACGCTCTGATCATAGTCAGACCAACATTGCTACGACCCGTATTCGCACCGACAC	-2.08 ± 0.55	0.121 ± 0.33
ACATTTGCTGATACTACCATATAATGATAATAACACCCATAAAATGATAATTATCACACCCAATTTAACTATAACGCTCTGATCATAGTCAGACCAACATTGCTACGACCCGTATTCGCACCGACAC	-2.27 ± 0.43	-0.422 ± 0.19
ACATTTGCTGATACTACCATATAATGATAATAACACCCCTAAAATGATAATTATCACACCCAATTTAACTATAACGCTCTGATCATAGTCAGACCAACATTGCTACGACCCGTATTCGCACCGACAC	-4.12 ± 0.62	-2.64 ± 0.76

Sequence	relative integration efficiency (log2) [1]	relative integration efficiency (log2) [2]
ACATTTGCTGATACTACCATTTAATGATAATAACACCCATAAAATGATAATTATCACACCCAATTTAACTATAACGCTCTGATCATAGTCAGACCAACATTGCTACGACCCGTATTCGCACCGACAC	-2.31 ± 0.44	-0.487 ± 0.3
ACATTTGCTGATACTACCATTTAATGATAATAACACCCCTAAAATGATAATTATCACACCCAATTTAACTATAACGCTCTGATCATAGTCAGACCAACATTGCTACGACCCGTATTCGCACCGACAC	-4.9716 ± 0.0047	-4.07 ± 0.06
ACATTTGCTGATAGAACCATATAATGATAATAACACCAATAAAATGATAATTATCACACCCAATTTAACTATAACGCTCTGATCATAGTCAGACCAACATTGCTACGACCCGTATTCGCACCGACAC	-3.5 ± 0.17	-2.34 ± 0.35
ACATTTGCTGATAGAACCATATAATGATAATAACACCCATAAAATGATAATTATCACACCCAATTTAACTATAACGCTCTGATCATAGTCAGACCAACATTGCTACGACCCGTATTCGCACCGACAC	-2.94 ± 0.33	-1.38 ± 0.21
ACATTTGCTGATAGAACCATTTAATGATAATAACACCAATAAAATGATAATTATCACACCCAATTTAACTATAACGCTCTGATCATAGTCAGACCAACATTGCTACGACCCGTATTCGCACCGACAC	-4.53 ± 0.5	-2.93 ± 0.82
ACATTTGCTGATAGAACCATTTAATGATAATAACACCCATAAAATGATAATTATCACACCCAATTTAACTATAACGCTCTGATCATAGTCAGACCAACATTGCTACGACCCGTATTCGCACCGACAC	-3.66 ± 0.41	-2.38 ± 0.95
ACATTTGGGGATACAACCATAAAATGATAATTACACCCATAAATTGATAATTATCACACCCATAAATTGATATTGCCTCTGATCATAGTCAGACCAACATTGCTACGACCCGTATTCGCACCGACAC	-6.43 ± 0.081	-5.49 ± 0.94
ACATTTGGGTCTACAACCATAAAATGATAATTACACCCATAAATTGATAATTATCACACCCATAAATTGATATTGCCTCTGATCATAGTCAGACCAACATTGCTACGACCCGTATTCGCACCGACAC	-7.19 ± 1.1	-4.93 ± 0.96
ACATTTGGTGATACAACCATATAATGATAATAACACCCATAAAATGATAATTATCACACCCAATTTAACTATAACGCTCTGATCATAGTCAGACCAACATTGCTACGACCCGTATTCGCACCGACAC	-6.35 ± 0.32	-3.69 ± 0.97
ACATTTGTAAAAAAAACCATACGTTGATTTTACGAAACCATACGCTGAAATAAAAACAACCATACCTTGAAATTGCCTCTGATCATAGTCAGACCAACATTGCTACGACCCGTATTCGCACCGACAC	-6.84 ± 0.49	-4.82 ± 1.9
ACATTTGTAAAAAAAACCATACGTTGATTTTACGAAACCATACGCTGAAATAAAAACAACCATACCTTGAAATTGCTTATAAAGTGTACAACACTTGAGAAAGTTTACTACAGGTATGCACCGACAC	-7.441 ± 0.019	< -10
ACATTTGTAAAAAAAACCATACGTTGATTTTACGAAACCATACGCTGAAATAATCACAACCATAAATTGAAATTGCCTCTGATCATAGTCAGACCAACATTGCTACGACCCGTATTCGCACCGACAC	-6.99 ± 0.21	-6.41 ± 1.9
ACATTTGTAAAAAAAACCATACGTTGATTTTACGAAACCATACGCTGAAATAATCACAACCATAACTTGAAATTGCCTCTGATCATAGTCAGACCAACATTGCTACGACCCGTATTCGCACCGACAC	-6.63 ± 1.2	< -10
ACATTTGTAAAAAAAACCATACGTTGATTTTACGAAACCATACGCTGAAATAATCACAACCATACATTGAAATTGCCTCTGATCATAGTCAGACCAACATTGCTACGACCCGTATTCGCACCGACAC	-6.97 ± 0.31	-4.99 ± 1
ACATTTGTAAAAACAACCATAAAATGATAATTACACCCATAAATTGATAATTATCACACCCATAAATTGATATTGCCTCTGATCATAGTCAGACCAACATTGCTACGACCCGTATTCGCACCGACAC	0.25 ± 0.023	-0.286 ± 0.49
ACATTTGTAAATAAAACCATACGTTGATTTTACGAAACCATACGCTGAAATAATCACACCCATAAATTGATATTGCCTCTGATCATAGTCAGACCAACATTGCTACGACCCGTATTCGCACCGACAC	-6.595 ± 0.05	-4.7 ± 0.57
ACATTTGTACATACAACCATAAAATGATAATTACACCCATAAATTGATAATTATCACACCCATAAATTGATATTGCCTCTGATCATAGTCAGACCAACATTGCTACGACCCGTATTCGCACCGACAC	-0.312 ± 0.12	-1.97 ± 0.36
